# Test results as given in patent US20240002479A1 (REGENTS OF THE UNIVERSITY OF MICHIGAN, published 2024).
# Assays:
# [1] = target: T1, DENV2 NS1 (dengue virus serotype 2 non-structural protein 1), wild type (Dengue virus 2, UniProt P29990 776-1127); test: direct ELISA, 2B7 titrated on purified DENV2 NS1, OD450
# T1 sequence: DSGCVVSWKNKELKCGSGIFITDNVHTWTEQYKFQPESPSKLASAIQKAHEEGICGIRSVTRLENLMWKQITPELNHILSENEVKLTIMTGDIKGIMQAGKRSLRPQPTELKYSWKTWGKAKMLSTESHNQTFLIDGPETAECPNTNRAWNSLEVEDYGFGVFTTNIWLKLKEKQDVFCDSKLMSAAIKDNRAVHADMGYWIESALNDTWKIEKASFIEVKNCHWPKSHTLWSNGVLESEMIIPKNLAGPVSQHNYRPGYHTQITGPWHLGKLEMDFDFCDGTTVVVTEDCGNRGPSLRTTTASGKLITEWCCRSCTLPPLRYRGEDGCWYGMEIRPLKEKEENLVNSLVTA
# [2] = target: T1, DENV2 NS1 (dengue virus serotype 2 …); test: BLI, NS1 on anti-His tips; full-length 2B7, not Fab
# [3] = target: T1, DENV2 NS1 (dengue virus serotype 2 …); test: BLI, NS1 on anti-His tips; Fab, not full-length IgG
# [4] = target: T1, DENV2 NS1 (dengue virus serotype 2 …); test: BLI, NS1 on anti-His tips, n=2 preparations
Binder,EC50 (read off the curve) [1],Kd [2],Kd [3],Kd [4]
"anti-DENV NS1 IgG2b mouse monoclonal antibody (mAb) 2B7 (antibody, V domains shown) VH: EVQLQQSGPELVKPGASVKMSCKASGCTLTNCFMHWMKQKPGQDLEWIGYINPYNDMTKYSENFKGKATLTSDKSSSTAFMELSSLTSEDSAVYYCARGYLLRTGCFDYWGQGTTLTVSS VL: NIVLTQSPASLAVSLGQRATISCRASESVDSYGYSFMHWYQQKPGQPPKVLIYLASNLESGVPARFSGSGSRTDFTLTIDPVEADDAATYYCQQNNENPLTFGAGTKLELKR",~5 ng/mL,4.8 nM,–,–
"2B7 Fab (Fab, V domains shown) VH: EVQLQQSGPELVKPGASVKMSCKASGCTLTNCFMHWMKQKPGQDLEWIGYINPYNDMTKYSENFKGKATLTSDKSSSTAFMELSSLTSEDSAVYYCARGYLLRTGCFDYWGQGTTLTVSS VL: NIVLTQSPASLAVSLGQRATISCRASESVDSYGYSFMHWYQQKPGQPPKVLIYLASNLESGVPARFSGSGSRTDFTLTIDPVEADDAATYYCQQNNENPLTFGAGTKLELK",–,–,8.3 nM,5 to 8 nM
